# Where a chain is given by its changes, count along the chain named. Names and notes keep the numbering of the source.
# B1: KGSADH (α-ketoglutaric semialdehyde dehydrogenase) (Azospirillum brasilense; A337R/A442P/P444T/R334Q) (protein)
# chain: ANVTYTDTQLLIDGEWVDAASGKTIDVVNPATGKPIGRVAHAGIADLDRALAAAQSGFEAWRKVPAHERAATMRKAAALVRERADAIAQLMTQEQGKPLTEARVEVLSAADIIEWFADEGRRVYGRIVPPRNLGAQQTVVKEPVGPVAAFTPWNFPVNQVVRKLSAALATGCSFLVKAPEETPASPAALLRAFVDAGVPAGVIGLVYGDPAEISSYLIPHPVIRKVTFTGSTPVGKQLASLAGLHMKRATMELGGHAPVIVAEDADVALAVKAAGGAKFRNAGQVCISPTRFLVHNSIRDEFTRALVKHAEGLKVGNGLEEGTTLGALANPRQLTRMASVIDNARKVGASIETGGERIGSEGNFFAPTVIANVPLDADVFNNEPFGPVAAIRGFDKLEEAIAEANRLPFGLAGYAFTRSFANVHLLTQRLEVGMLWINQPPTTWPEMPFGGVKDSGYGSEGGPEALEPYLVTKSVTVMAV
# notes: N-terminal His6-tag (pQE80L), expressed in E. coli DH10β, Ni-NTA purified; catalytic residues E253 and C287
# B2: KGSADH (α-ketoglutaric semialdehyde dehydrogenase) (Azospirillum brasilense; A337R/A442P/K273A/P444A/R334Q/T443E) (protein)
# chain: B1 chain with K272A, T442E, T443A
# notes: as for B1
# B3: KGSADH (α-ketoglutaric semialdehyde dehydrogenase) (Azospirillum brasilense; A110S/A337R/A442P/K273A/P444T/R334Q) (protein)
# chain: B1 chain with A109S, K272A
# notes: as for B1
# B4: KGSADH (α-ketoglutaric semialdehyde dehydrogenase) (Azospirillum brasilense; A337R/R334Q) (protein)
# chain: B1 chain with P441A, T443P
# notes: as for B1
# B5: KGSADH (α-ketoglutaric semialdehyde dehydrogenase) (Azospirillum brasilense) (protein)
# chain: B1 chain with Q333R, R336A, P441A, T443P
# notes: as for B1
# What was measured:
# Assay in all cases: purified protein
# Assay type in all cases: biochemical, Azospirillum brasilense
# purified protein [1] = substrate: NC(=O)c1ccc[n+]([C@@H]2O[C@H](COP(=O)(O)OP(=O)(O)OC[C@H]3O[C@@H](n4cnc5c(N)ncnc54)[C@H](O)[C@@H]3O)[C@@H](O)[C@H]2O)c1; settings: 3 mM 3-HPA, 100 mM phosphate pH 8, 25 °C, varied: cofactor
# From the text: (§1) (α-ketoglutaric semialdehyde dehydrogenase)
# purified protein [2] = substrate: O=CCCO; settings: 2 mM NAD+, 100 mM phosphate pH 8, 25 °C
# From the text: as §1
# purified protein [3] = substrate: NC(=O)c1ccc[n+]([C@@H]2O[C@H](COP(=O)(O)OP(=O)(O)OC[C@H]3O[C@@H](n4cnc5c(N)ncnc54)[C@H](OP(=O)(O)O)[C@@H]3O)[C@@H](O)[C@H]2O)c1; settings: 3 mM 3-HPA, 100 mM phosphate pH 8, 25 °C, varied: cofactor
# From the text: as §1
protein,measurement,setting,value
B1,Km,purified protein [1]; variant 106-QR,0.025(±0.0045) mM
same,kcat,purified protein [1]; variant 106-QR,4.8 ± 0.93 s⁻¹
same,kcat/Km,purified protein [1]; variant 106-QR,192000 ± 72500 M⁻¹ s⁻¹
same,Km,purified protein [2]; variant 106-QR,0.29(±0.062) mM
same,kcat,purified protein [2]; variant 106-QR,5 ± 1.2 s⁻¹
same,kcat/Km,purified protein [2]; variant 106-QR,17000 ± 7800 M⁻¹ s⁻¹
B2,Km,purified protein [3]; variant 108-QR,0.66(±0.065) mM
same,kcat,purified protein [3]; variant 108-QR,4.5 ± 1.1 s⁻¹
same,kcat/Km,purified protein [3]; variant 108-QR,6900 ± 2300 M⁻¹ s⁻¹
same,Km,purified protein [1]; variant 108-QR,0.037(±0.0024) mM
same,kcat,purified protein [1]; variant 108-QR,6.1 ± 0.64 s⁻¹
same,kcat/Km,purified protein [1]; variant 108-QR,165000 ± 28000 M⁻¹ s⁻¹
same,Km,purified protein [2]; variant 108-QR,0.17(±0.032) mM
same,kcat,purified protein [2]; variant 108-QR,6 ± 1.3 s⁻¹
same,kcat/Km,purified protein [2]; variant 108-QR,35000 ± 14000 M⁻¹ s⁻¹
B3,Km,purified protein [1]; variant 104-QR,0.033(±0.0089) mM
same,kcat,purified protein [1]; variant 104-QR,5.9 ± 0.61 s⁻¹
same,kcat/Km,purified protein [1]; variant 104-QR,179000 ± 66700 M⁻¹ s⁻¹
same,Km,purified protein [2]; variant 104-QR,0.43(±0.094) mM
same,kcat,purified protein [2]; variant 104-QR,6.7 ± 0.64 s⁻¹
same,kcat/Km,purified protein [2]; variant 104-QR,16000 ± 4900 M⁻¹ s⁻¹
B4,Km,purified protein [3]; variant WT-QR,0.81(±0.15) mM
same,kcat,purified protein [3]; variant WT-QR,4.4 ± 1.4 s⁻¹
same,kcat/Km,purified protein [3]; variant WT-QR,5400 ± 2700 M⁻¹ s⁻¹
same,Km,purified protein [1]; variant WT-QR,0.044(±0.0033) mM
same,kcat,purified protein [1]; variant WT-QR,7.9 ± 0.75 s⁻¹
same,kcat/Km,purified protein [1]; variant WT-QR,180000 ± 30500 M⁻¹ s⁻¹
same,Km,purified protein [2]; variant WT-QR,0.55(±0.13) mM
same,kcat,purified protein [2]; variant WT-QR,6.8 ± 0.35 s⁻¹
same,kcat/Km,purified protein [2]; variant WT-QR,12000 ± 3600 M⁻¹ s⁻¹
B5,Km,purified protein [3],2.3(±0.033) mM
same,kcat,purified protein [3],8.6 ± 0.84 s⁻¹
same,kcat/Km,purified protein [3],3700 ± 420 M⁻¹ s⁻¹
same,Km,purified protein [1],0.21(±0.018) mM
same,kcat,purified protein [1],12 ± 1.7 s⁻¹
same,kcat/Km,purified protein [1],57000 ± 13000 M⁻¹ s⁻¹
same,Km,purified protein [2],1.6(±0.14) mM
same,kcat,purified protein [2],15 ± 2.1 s⁻¹
same,kcat/Km,purified protein [2],9000 ± 2100 M⁻¹ s⁻¹
